Measurements published in the supplement of paper PMC9170038.

System: MS2 coat protein
Test: apparent KD of MS2 coat protein; designed switch direction (-1 OFF switch, 1 ON switch): -1; higher = weaker reporter binding
Method in brief: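 Stalled E. coli RNA polymerase transcribed designed RNA switches on Illumina chips, which were then titrated with SNAP-549-labelled MS2 coat protein, doubling from 0.7 or 1.5 nM to 3 µM. Steps lasted from 0.8–1.5 h at the lowest concentration to 10–20 min at the highest. The apparent KD is each design's median over clusters of curve-fitted normalised fluorescence.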

[1] = input ligand: microRNA oligo, concentration not stated
[2] = Eterna round: R95, input ligand: FMN 200 uM
[3] = Eterna round: R95, input ligand: microRNA oligo, concentration not stated
[4] = Eterna round: R95, input ligand: none

“CUCGUGUGAGGAUAUCAACGUCAAGCGUGAGCGAGACGAGAUGAGAAGGUACAUGAGGAUCACCCAUGUGCUCA [Eternabot (Original) Solution 25] (Eterna round: R97, puzzle: Exclusion 4)” was tested, and the “apparent KD of MS2 coat protein” value (input ligand: FMN 200 uM) was 83.1 nM and the “apparent KD of MS2 coat protein” value (input ligand: none) was 20 nM.
For “GAUACACGUUCAGGAUAUCGCGCCCAAUUACACCUCUUCCGACGGACAUGAGGAUCACCCAUGUGCGAGAAGGGAACCAAAACU [Orquonbedi] (Eterna round: R96, puzzle: Exclusion NG 2)”, the “apparent KD of MS2 coat protein” value (input ligand: FMN 200 uM) was 13.6 nM, the “apparent KD of MS2 coat protein” value [1] was 13.2 nM and the “apparent KD of MS2 coat protein” value (input ligand: none) was 17.4 nM.
“AGUACUUACACGAAAGUGUAAGUACAAUAAGCUUGUGGAACAUGAGGAUCACCCAUGUCCUCAUAAGCUCGUCUUAU [Mat - Sensor v3 - Turn-off var 2 - D28] (puzzle: Sensor v3, turn-off variant 2)” was tested, and the “apparent KD of MS2 coat protein” value [2] was 14.5 nM, the “apparent KD of MS2 coat protein” value [3] was 75.2 nM and the “apparent KD of MS2 coat protein” value [4] was 14.3 nM.
In the case of “GCGUUUUGGUGAGGAUAUCGGCCCGAAACCGGGCAACAUGAGGAUCACCCAUGUACGUGAUCCUGCGAGAAGGCACCGAUUAUA [Bedi] (Eterna round: R96, puzzle: Exclusion NG 2)”, the “apparent KD of MS2 coat protein” value (input ligand: FMN 200 uM) is reported as 990 nM, the “apparent KD of MS2 coat protein” value [1] is reported as 60.7 nM and the “apparent KD of MS2 coat protein” value (input ligand: none) is reported as 964 nM.
“CCGCAAAUGUAGGAUAUCGUAUCGGAUACGAUACGAGAAGGGCAUACAUGAGGAUCACCCAUGUGUCCUAGCGG [Fiskers Ex 6 - 44] (puzzle: Exclusion 6)” was tested, and the “apparent KD of MS2 coat protein” value [3] was 12 nM.
For “CUUUAGUGAGGAUAUUAGUAGUAAUACAAUAGUAUUACUACUGAGAAGGCACAUGAGGAUCACCCAUGUUCCUC [Mat - Exclusion 4 - Mod of Omei - D79] (puzzle: Exclusion 4)”, the “apparent KD of MS2 coat protein” value [3] was 28 nM.
In the case of “AGCAUGUGAGGAUAUGUACCUGAGUGCUUUGCGCUCAGGAAACAGAAGGCACAUGAGGAUCACCCAUGUGAAAA [jl-ex4-4.45 ViennaUCT mod] (Eterna round: R97, puzzle: Exclusion 4)”, the “apparent KD of MS2 coat protein” value (input ligand: FMN 200 uM) is reported as 68.7 nM and the “apparent KD of MS2 coat protein” value (input ligand: none) is reported as 281 nM.
For “GUGGUGGGUUUUCCGAGUGACAUGAGGAUCACCCAUGUGUUAGUUUGAGGUAUCAAGCGAAUGGCUCGUCUUAUGUG [JR_SV3TOV1_Sub046] (puzzle: Sensor v3, turn-off variant 1)”, the “apparent KD of MS2 coat protein” value [2] was 140 nM, the “apparent KD of MS2 coat protein” value [3] was 21.2 nM and the “apparent KD of MS2 coat protein” value [4] was 154 nM.
For “AAGAAACAUGAGGAUCACCCAUGUGAGGAUAUGAUUAAGAAAAGAAAAGAAAGAAGAAUCAGAAGGCACAAAGG [salish99-ex1_r3_042] (puzzle: Exclusion 1)”, the “apparent KD of MS2 coat protein” value [2] was 258 nM, the “apparent KD of MS2 coat protein” value [3] was 98.7 nM and the “apparent KD of MS2 coat protein” value [4] was 108 nM.
For “CUCCUACAUGAGGAUCACCCAUGUCAGGAUAUCUCAGUGGCACCUAAAUUCGCCACCCAGAGAAGGGACGUGCA [Erralaorge] (puzzle: Exclusion 1)”, the “apparent KD of MS2 coat protein” value [3] was 13.4 nM.
In the case of “UUUAGUGGUAAGGAUAUCCUUGAGAAAGAAAGAGGAGAAGGUACCACAUGAGGAUCACCCAUGUGGCUCUUUUA [jl-ex6-4.58 Nando mod] (Eterna round: R97, puzzle: Exclusion 6)”, the “apparent KD of MS2 coat protein” value (input ligand: FMN 200 uM) is reported as 32.7 nM and the “apparent KD of MS2 coat protein” value (input ligand: none) is reported as 18.2 nM.
In the case of “ACGAAACAUGAGGAUCACCCAUGUGAGGAUAUGUAAAUACUAGACAAAUAACAGAAAAACAGAAGGCACUCAGA [JR_Exclusion1_Sub003] (puzzle: Exclusion 1)”, the “apparent KD of MS2 coat protein” value [3] is reported as 22 nM.
For “AGCUAGUCAGGAUAUUCUAAUAAUUACAUGAGGAUCACCCAUGUGCAUAGACAAGGGUGUGAAGAAGGGACUAGCG [Omei Ex5 A7] (Eterna round: R97, puzzle: Exclusion 5)”, the “apparent KD of MS2 coat protein” value (input ligand: FMN 200 uM) was 797 nM and the “apparent KD of MS2 coat protein” value (input ligand: none) was 2530 nM.
In the case of “GCCGGAGCAGGAUAUCUAAUAUAUCACAUGAGGAUCACCCAUGUCCAGCGAAAGCUGGAGGGAGAAGGGCUCUGGC [Fiskers Ex 5 - 22] (puzzle: Exclusion 5)”, the “apparent KD of MS2 coat protein” value [2] is reported as 59.7 nM, the “apparent KD of MS2 coat protein” value [3] is reported as 133 nM and the “apparent KD of MS2 coat protein” value [4] is reported as 132 nM.
With “AAAACAAAGCUAGGAUAUUGUCCGAUGUAGCGAUAAGAAGGAGCAGAGUACGUCUGGUCCACAUGAGGAUCACCCAUGUACAAA [Inmaon] (Eterna round: R96, puzzle: Exclusion NG 1)” the “apparent KD of MS2 coat protein” value (input ligand: FMN 200 uM) was 183 nM, the “apparent KD of MS2 coat protein” value [1] was 79.6 nM and the “apparent KD of MS2 coat protein” value (input ligand: none) was 67.5 nM.
For “AUAUAGUCAGGAUAUCGAAGUGAGUGUUGGUGGGUAAGGUACGAGAAGGGACAUGAGGAUCACCCAUGUAGGAA [JR_Exclusion4)Sub004] (puzzle: Exclusion 4)”, the “apparent KD of MS2 coat protein” value [3] was 48 nM.
“UUUUUAGUGCUUUUUAAGUACAUGAGGAUCACCCAUGUACUUGUCUGGUGGUCCGGACAAGCUUUUUGCUCGUCUAG [Sensor v3 - turn-off variant 1 - 3] (puzzle: Sensor v3, turn-off variant 1)” was tested, and the “apparent KD of MS2 coat protein” value [2] was 32.4 nM, the “apparent KD of MS2 coat protein” value [3] was 29.4 nM and the “apparent KD of MS2 coat protein” value [4] was 36.4 nM.
“CUGAGCAGACGGAGAUCCAACAUGAGGAUCACCCAUGUCUCAAAAGCUUUUUGCUCGUCUUACCCUCCUCUGCUCUC [Ticeisor] (puzzle: Sensor v3, turn-off variant 1)” was tested, and the “apparent KD of MS2 coat protein” value [2] was 19.1 nM, the “apparent KD of MS2 coat protein” value [3] was 40.3 nM and the “apparent KD of MS2 coat protein” value [4] was 15.1 nM.
With “UCCUCACAUGAGGAUCACCCAUGUCAGGAUAUCCAACAUGCUCCCAAAACCACGCAUCGGAGAAGGGACAUGCA [EX1 A.6] (Eterna round: R97, puzzle: Exclusion 1)” the “apparent KD of MS2 coat protein” value (input ligand: FMN 200 uM) was 21.7 nM and the “apparent KD of MS2 coat protein” value (input ligand: none) was 17.7 nM.
“AGUACUAUGCGAGCUGACUUGCGUAGUGCAGCAGGUGUUACAUGAGGAUCACCCAUGUCCUCAUUUGCUCGUCUUAA [Mat - Sensor v3 - Turn-off var 2 - D7] (puzzle: Sensor v3, turn-off variant 2)” was tested, and the “apparent KD of MS2 coat protein” value [2] was 267 nM, the “apparent KD of MS2 coat protein” value [3] was 91.8 nM and the “apparent KD of MS2 coat protein” value [4] was 293 nM.
In the case of “AAAGAGCGAGGAUAUACAUGAGGAUCACCCAUGUAAAGAUGCAUGGUCUGAACGUCUGGUAGAAGGCGUAUGAA [Diatater] (puzzle: Exclusion 3)”, the “apparent KD of MS2 coat protein” value [3] is reported as 98.7 nM.
In the case of “UUAUAAAGUGUGAGGAUAUGCUGGUCGAUAGAUCAGCAGAAGGCACAUGAGGAUCACCCAUGUAAUAUAUUUUA [Mat - Exclusion 4 - JL Mod - D45] (puzzle: Brourd's mod of Exclusion 4)”, the “apparent KD of MS2 coat protein” value [3] is reported as 50 nM.
With “UAUUAAUGCAAGGAUAUGCUAUUAAUUUUUUUUGCAGAAGGUGCAACAUGAGGAUCACCCAUGUUUGAGGGUAU [JR_E6_Sub029] (puzzle: Exclusion 6)” the “apparent KD of MS2 coat protein” value [3] was 55.9 nM.
With “AGGUGUAGAGGAUAUACUGCAAAGCACAUGAGGAUCACCCAUGUCCCUCUAUGAAAUUAAGUAGAAGGCUACACCA [Omei Ex5 C5] (Eterna round: R97, puzzle: Exclusion 5)” the “apparent KD of MS2 coat protein” value (input ligand: FMN 200 uM) was 88.6 nM and the “apparent KD of MS2 coat protein” value (input ligand: none) was 77.1 nM.
With “UUUACAAGCUUAAGAUCCCACAUGAGGAUCACCCAUGUUGCUGCCGGUGACGGUAGCAUAACUUAUGCUCGUCUUAU [JL TOV1 3.60] (Eterna round: R97, puzzle: Sensor, turn-off variant 1)” the “apparent KD of MS2 coat protein” value (input ligand: FMN 200 uM) was 177 nM and the “apparent KD of MS2 coat protein” value (input ligand: none) was 188 nM.
In the case of “UUUUUAGUGCUUUUUAAGUACAUGAGGAUCACCCAUGUACUUGUCUGGUGGUCCGGACAAGCUUUUUGCUCGUCUAC [Sensor v3 - turn-off variant 1 - 2] (puzzle: Sensor v3, turn-off variant 1)”, the “apparent KD of MS2 coat protein” value [2] is reported as 49.5 nM, the “apparent KD of MS2 coat protein” value [3] is reported as 30.5 nM and the “apparent KD of MS2 coat protein” value [4] is reported as 54.3 nM.
In the case of “UACAUGAGGAUCACCCAUGUUUUGUCGUGUAUGGUAUUUAUCUAGGAUAUCAUUUAAUUUAGUUAUGAGAAGGAGAAUAUUAAU [JMF's solution 85] (Eterna round: R96, puzzle: Exclusion NG 3)”, the “apparent KD of MS2 coat protein” value (input ligand: FMN 200 uM) is reported as 31.3 nM, the “apparent KD of MS2 coat protein” value [1] is reported as 17 nM and the “apparent KD of MS2 coat protein” value (input ligand: none) is reported as 27.8 nM.
In the case of “GAUGAGGUAGGAUAUACGAUAAUAUAGGGUAGAUAUAUAACACAUGAGGAUCACCCAUGUAGAAGGACCAGUAG [Mat - Exclusion 2 - Mod of my Tesla design - D66] (puzzle: Exclusion 2)”, the “apparent KD of MS2 coat protein” value [3] is reported as 33.4 nM.
With “GGAGGCCAGUAAGGAUAUUCAUGGUAGAUUCAUGAAGAAGGUACGGAGUGUCCUGACAUGAGGAUCACCCAUGUAGCCUCCAAG [Betien] (Eterna round: R96, puzzle: Exclusion NG 1)” the “apparent KD of MS2 coat protein” value (input ligand: FMN 200 uM) was 76.4 nM, the “apparent KD of MS2 coat protein” value [1] was 25.1 nM and the “apparent KD of MS2 coat protein” value (input ligand: none) was 34.3 nM.
With “CCUCGCCCUCUUGCACAUGAGGAUCACCCAUGUUUUACGUACUAGGAUAUAGCUAUGUUCAAUCGUUAGAAGGAGUUCAUGGAU [Eternabot solution 37] (Eterna round: R96, puzzle: Exclusion NG 3)” the “apparent KD of MS2 coat protein” value [1] was 77.4 nM.
For “ACAAAGGACAUGAGGAUCACCCAUGUGGUGCACAAGUCCAGCAAGGAUAUCCAAGUCCCAUAAACGGAGAAGGUGCAUAAUAAG [Inesxeed] (Eterna round: R96, puzzle: Exclusion NG 3)”, the “apparent KD of MS2 coat protein” value (input ligand: FMN 200 uM) was 283 nM, the “apparent KD of MS2 coat protein” value [1] was 86.6 nM and the “apparent KD of MS2 coat protein” value (input ligand: none) was 113 nM.
